Laboratory results from US20050171017A1.

Columns and labels:
[1] = target: thyroid-stimulating hormone (TSH) receptor (human) (UniProt P16473); assay: flow cytometry, 10 ug/ml TSH-biotin + SA-PE on human PBMC donor 1, myeloid gate; SA-PE alone 4.44, unstained 3.43; * = credible positive shift
[2] = target: thyroid-stimulating hormone (TSH) receptor (human) (UniProt P16473); assay: flow cytometry, 10 ug/ml TSH-biotin + SA-PE on human PBMC donor 2, myeloid gate; SA-PE alone 5.92, unstained 4.33; * = credible positive shift
[3] = target: thyroid-stimulating hormone (TSH) receptor (human) (UniProt P16473); assay: flow cytometry, 10 ug/ml TSH-biotin + SA-PE on U937 human monocyte line, all live cells; SA-PE alone 4.88, unstained 4.49; * = credible positive shift
[4] = target: thyroid-stimulating hormone (TSH) receptor (human) (UniProt P16473); assay: flow cytometry, 10 ug/ml TSH-biotin + SA-PE on human PBMC donor 1, lymphoid gate; SA-PE alone 2.50, unstained 2.13; no * (no credible shift)
[5] = target: thyroid-stimulating hormone (TSH) receptor (human) (UniProt P16473); assay: flow cytometry, 10 ug/ml TSH-biotin + SA-PE on human PBMC donor 2, lymphoid gate; SA-PE alone 3.92, unstained 3.19; no * (no credible shift)
[6] = target: thyroid-stimulating hormone (TSH) receptor (human) (UniProt P16473); assay: cell-based or functional assay

Sequence of thyroid-stimulating hormone (TSH) receptor (human) (P16473 21-764): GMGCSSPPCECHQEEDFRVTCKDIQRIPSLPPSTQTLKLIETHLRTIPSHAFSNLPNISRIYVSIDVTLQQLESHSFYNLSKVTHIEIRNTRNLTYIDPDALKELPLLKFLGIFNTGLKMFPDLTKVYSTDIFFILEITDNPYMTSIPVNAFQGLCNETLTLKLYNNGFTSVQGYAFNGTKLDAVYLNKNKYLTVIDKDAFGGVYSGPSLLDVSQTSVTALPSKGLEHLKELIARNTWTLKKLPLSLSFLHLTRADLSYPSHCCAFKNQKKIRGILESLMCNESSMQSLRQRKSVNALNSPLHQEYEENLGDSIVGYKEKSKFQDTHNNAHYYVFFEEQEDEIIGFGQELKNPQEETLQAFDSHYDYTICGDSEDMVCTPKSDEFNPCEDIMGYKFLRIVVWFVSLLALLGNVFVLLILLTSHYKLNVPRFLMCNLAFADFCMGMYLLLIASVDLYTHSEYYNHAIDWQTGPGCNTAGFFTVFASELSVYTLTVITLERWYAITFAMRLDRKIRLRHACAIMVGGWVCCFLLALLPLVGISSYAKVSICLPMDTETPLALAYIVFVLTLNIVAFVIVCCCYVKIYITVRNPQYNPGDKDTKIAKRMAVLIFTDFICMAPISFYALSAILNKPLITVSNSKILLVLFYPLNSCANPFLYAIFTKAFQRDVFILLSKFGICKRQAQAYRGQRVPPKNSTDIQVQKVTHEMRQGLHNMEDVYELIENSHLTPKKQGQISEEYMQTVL

FL-2 MFI [1]	FL-2 MFI [2]	FL-2 MFI [3]	FL-2 MFI [4]	FL-2 MFI [5]	luciferase induction (CRE-luciferase reporter, NCI-H295R human adrenal cortex cells) [6]	Substance
7.78 MFI	7.26 MFI	6.34 MFI	2.63 MFI	4.23 MFI	–	TSH-biotin (from UniProt P01215 25-116; P01222 21-132) (ligand)
–	–	–	–	–	15 to 25 fold	Thyroid stimulating hormone (TSH), purified TSH heterodimer protein (from UniProt P01215 25-116; P01222 21-132) (ligand)
